The assay has as its target T1, transferrin receptor (TfR) (human, UniProt P02786 1-760).
T1 construct: whole, on cells; also called 100 and 200 kDa proteins
As to the kind of experiment: immunoprecipitation of surface-biotinylated 293 cell proteins with HFE or FLAG antibodies.

T1 sequence (P02786 whole entry): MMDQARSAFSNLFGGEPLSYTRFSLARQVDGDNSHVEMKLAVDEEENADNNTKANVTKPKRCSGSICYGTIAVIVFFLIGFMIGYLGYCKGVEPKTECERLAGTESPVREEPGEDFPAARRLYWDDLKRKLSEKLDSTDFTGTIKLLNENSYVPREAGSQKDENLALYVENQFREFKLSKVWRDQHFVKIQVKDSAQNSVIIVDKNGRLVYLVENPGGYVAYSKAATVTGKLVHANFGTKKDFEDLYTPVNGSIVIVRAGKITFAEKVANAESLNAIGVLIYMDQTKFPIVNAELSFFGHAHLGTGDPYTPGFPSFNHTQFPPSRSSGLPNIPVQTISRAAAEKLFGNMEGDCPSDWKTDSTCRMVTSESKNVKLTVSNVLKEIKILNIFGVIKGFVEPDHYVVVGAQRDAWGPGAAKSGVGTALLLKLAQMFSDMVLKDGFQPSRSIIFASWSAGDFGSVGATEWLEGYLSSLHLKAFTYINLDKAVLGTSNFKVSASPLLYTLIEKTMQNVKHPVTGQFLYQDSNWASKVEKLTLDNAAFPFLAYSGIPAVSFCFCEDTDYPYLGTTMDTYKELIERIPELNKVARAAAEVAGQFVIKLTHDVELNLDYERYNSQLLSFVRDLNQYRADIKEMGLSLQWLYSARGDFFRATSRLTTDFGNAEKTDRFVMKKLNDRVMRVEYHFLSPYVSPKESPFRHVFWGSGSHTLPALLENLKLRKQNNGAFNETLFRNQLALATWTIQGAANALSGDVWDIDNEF
Method: Cell surface protein biotinylations. Cells (4×10⁶) were seeded into 100 mm dishes and grown overnight to 80% confluency. The plates were moved to 4° C. and gently washed four times with PBS. Suflo-NHS-LC Biotin (Pierce) was added in PBS to a final concentration of 500 g/ml and incubated on ice for 30 mins. The Biotin reagent was removed and the plates washed 4 times with PBS containing 50 mM glycine. Cells were lysed in 500 ml of 25 mM Tris-HCL, pH 7.5 150 mM NaCl plus 0.5% NP-40. […] Precipitated proteins were separated on 4-20% Tris-glycine polyacrylamide gels (Novex), electroblotted to PVDF membranes (Novex) and biotinylated proteins were visualized with 2 μg/ml of streptavidin-HRP (Pierce) followed by ECL detection reagents (Amersham).
Biotinylated proteins were detected with streptavidin-conjugated horseradish peroxidase (HRP).

B1: C282Y HFE mutant over-expressed in 293 cells (other, UniProt Q30201 23-348, looked up)
MHC heavy: RLLRSHSLHYLFMGASEQDLGLSLFEALGYVDDQLFVFYDHESRRVEPRTPWVSSRISSQMWLQLSQSLKGWDHMFTVDFWTIMENHNHSKESHTLQVILGCEMQEDNSTEGYWKYGYDGQDHLEFCPDTLDWRAAEPRAWPTKLEWERHKIRARQNRAYLERDCPAQLQQLLELGRGVLDQQVPPLVKVTHHVTSSVTTLRCRALNYYPQNITMKWLKDKQPMDAKEFEPKDVLPNGDGTYQGWITLAVPPGEEQRYTYQVEHPGLDQPLIVIWEPSPSGTLVIGVISGIAVFVVILFIGILFIILRKRQGSRGAMGHYVLAERE
notes: also called C282Y mutant
B1: the binding result was “no binding”.

For the origin of these results see patent publication US20060287236A1 (BIO RAD LABORATORIES, published 2006).
